B1: A L H MeF V A P Bph V W V C (peptide)
peptide: ALH[NMeF]VAP[Bip]VWVC
modifications: not fully specified (N-terminus, bridges); printed as A L H MeF V A P Bph V W V C
notes: Alanine variant at position 6
B2: A L H MeF V L A Bph V W V C (peptide)
peptide: ALH[NMeF]VLA[Bip]VWVC
modifications: not fully specified (N-terminus, bridges); printed as A L H MeF V L A Bph V W V C
notes: Alanine variant at position 7
B3: A L A MeF V L P Bph V W V C (peptide)
peptide: ALA[NMeF]VLP[Bip]VWVC
modifications: not fully specified (N-terminus, bridges); printed as A L A MeF V L P Bph V W V C
notes: Alanine variant at position 3
B4: A L H MeF V L P A V W V C (peptide)
peptide: ALH[NMeF]VLPAVWVC
modifications: not fully specified; printed as A L H MeF V L P A V W V C
notes: Alanine variant at position 8
B5: A A H MeF V L P Bph V W V C (peptide)
peptide: AAH[NMeF]VLP[Bip]VWVC
modifications: not fully specified (N-terminus, bridges); printed as A A H MeF V L P Bph V W V C
B6: A L H MeF A L P Bph V W V C (peptide)
peptide: ALH[NMeF]ALP[Bip]VWVC
modifications: not fully specified (N-terminus, bridges); printed as A L H MeF A L P Bph V W V C
notes: Alanine variant at position 5
B7: A L H A V L P Bph V W V C (peptide)
peptide: ALHAVLP[Bip]VWVC
modifications: not fully specified (N-terminus, bridges); printed as A L H A V L P Bph V W V C
notes: Alanine variant at position 4
B8: A R Ahp Y H D G V A Bph Ahp D C (peptide)
peptide: AR[Ahp(2)]YHDGVA[Bip][Ahp(2)]DC
modifications: not fully specified (N-terminus, bridges); printed as A R Ahp Y H D G V A Bph Ahp D C
notes: Alanine variant at position 9
B9: A R Ahp Y H A G V L Bph Ahp D C (peptide)
peptide: AR[Ahp(2)]YHAGVL[Bip][Ahp(2)]DC
modifications: not fully specified (N-terminus, bridges); printed as A R Ahp Y H A G V L Bph Ahp D C
notes: Alanine variant at position 6
B10: A R Ahp Y A D G V L Bph Ahp D C (peptide)
peptide: AR[Ahp(2)]YADGVL[Bip][Ahp(2)]DC
modifications: not fully specified (N-terminus, bridges); printed as A R Ahp Y A D G V L Bph Ahp D C
notes: Alanine variant at position 5
B11: A R Ahp Y H D A V L Bph Ahp D C (peptide)
peptide: AR[Ahp(2)]YHDAVL[Bip][Ahp(2)]DC
modifications: not fully specified (N-terminus, bridges); printed as A R Ahp Y H D A V L Bph Ahp D C
notes: Alanine variant at position 7
B12: A R Ahp Y H D G A L Bph Ahp D C (peptide)
peptide: AR[Ahp(2)]YHDGAL[Bip][Ahp(2)]DC
modifications: not fully specified (N-terminus, bridges); printed as A R Ahp Y H D G A L Bph Ahp D C
notes: Alanine variant at position 8
B13: A R Ahp A H D G V L Bph Ahp D C (peptide)
peptide: AR[Ahp(2)]AHDGVL[Bip][Ahp(2)]DC
modifications: not fully specified (N-terminus, bridges); printed as A R Ahp A H D G V L Bph Ahp D C
notes: Alanine variant at position 4

Where no end group is shown, it is not given here. [ ]: non-standard residue; d: D form. Bip = N[C@@H](Cc1ccc(-c2ccccc2)cc1)C(=O)O; NMeF = CN[C@@H](Cc1ccccc1)C(=O)O; Ahp(2) = CCCCC[C@H](N)C(=O)O

The first assay concerns the target T1, CD38 (human, UniProt P28907 43-300, limits assumed).
T1 construct: also called cluster of differentiation 38; cyclic ADP ribose hydrolase
Kind of assay: ELISA; larger values represent binding. (In general: ELISA stands for enzyme-linked immunosorbent assay.)
As to B1, the “Binding Assay (ELISA signal)” value amounted to 0.09.
With B2, the “Binding Assay (ELISA signal)” value was found to be 0.11.
For the molecule B3, the “Binding Assay (ELISA signal)” value was found to be 0.37.
The same measure, in the same setting: with B4 the figure was 0.09; with B5, 0.84.
On the same count and under the same terms, for B6 the value was 0.47; for B7, 0.1.

In a further assay the target is T1, CD38. Kind of assay: ELISA; larger values represent binding. This is another data set of the same source.
In the case of B8, the “Binding Assay (ELISA signal)” value turned out to be 0.08.
Turning to B9, the “Binding Assay (ELISA signal)” value is 0.93.
For the molecule B10, the “Binding Assay (ELISA signal)” value came out at 0.28.
Same read-out and setting: with B11 the figure was 1.49; with B12, 0.3; with B13, 0.11.

For the origin of these results see patent US20230028880A1, “CD38-BINDING AGENTS AND USES THEREOF” (Biohaven Therapeutics Ltd., priority 2019, published 2023).
